{"source": "patent US20100215684A1", "about": "(UNIVERSITY OF QUEENSLAND, published 2010)", "molecular_target": "T1, Human fibrinogen (Sigma), biotinylated (human, UniProt P02671 20-629; P02675 31-491; P02679 27-437)", "T1 construct": "also called biotinylated fibrinogen", "T1 sequence 1": "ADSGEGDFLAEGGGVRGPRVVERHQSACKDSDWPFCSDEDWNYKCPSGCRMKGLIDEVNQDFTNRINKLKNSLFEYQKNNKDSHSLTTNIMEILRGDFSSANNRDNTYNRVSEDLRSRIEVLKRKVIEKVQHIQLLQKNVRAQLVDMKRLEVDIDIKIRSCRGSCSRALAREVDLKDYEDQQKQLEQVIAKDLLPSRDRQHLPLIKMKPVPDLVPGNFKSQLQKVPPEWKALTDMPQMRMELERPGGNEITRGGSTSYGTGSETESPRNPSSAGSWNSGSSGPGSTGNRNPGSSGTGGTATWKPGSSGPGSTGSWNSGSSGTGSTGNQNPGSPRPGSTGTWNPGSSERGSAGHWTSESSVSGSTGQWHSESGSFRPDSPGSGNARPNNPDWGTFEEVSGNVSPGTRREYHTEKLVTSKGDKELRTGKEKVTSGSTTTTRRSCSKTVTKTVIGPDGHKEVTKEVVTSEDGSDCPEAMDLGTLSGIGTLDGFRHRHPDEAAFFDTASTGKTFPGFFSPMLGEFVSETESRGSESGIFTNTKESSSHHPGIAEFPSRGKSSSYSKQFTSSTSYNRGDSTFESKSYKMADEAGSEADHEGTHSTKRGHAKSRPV", "T1 sequence 2": "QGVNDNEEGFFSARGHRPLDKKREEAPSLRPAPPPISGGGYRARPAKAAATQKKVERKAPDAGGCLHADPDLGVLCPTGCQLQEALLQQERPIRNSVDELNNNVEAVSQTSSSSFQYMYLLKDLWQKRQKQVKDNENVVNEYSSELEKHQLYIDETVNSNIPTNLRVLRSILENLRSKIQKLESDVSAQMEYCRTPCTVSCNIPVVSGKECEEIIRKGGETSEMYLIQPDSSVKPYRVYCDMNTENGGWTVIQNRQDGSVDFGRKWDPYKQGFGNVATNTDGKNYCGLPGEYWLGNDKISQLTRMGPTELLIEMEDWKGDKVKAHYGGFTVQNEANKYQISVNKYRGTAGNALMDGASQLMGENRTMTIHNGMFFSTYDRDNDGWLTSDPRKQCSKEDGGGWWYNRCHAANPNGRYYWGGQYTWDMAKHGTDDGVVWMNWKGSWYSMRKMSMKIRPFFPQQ", "T1 sequence 3": "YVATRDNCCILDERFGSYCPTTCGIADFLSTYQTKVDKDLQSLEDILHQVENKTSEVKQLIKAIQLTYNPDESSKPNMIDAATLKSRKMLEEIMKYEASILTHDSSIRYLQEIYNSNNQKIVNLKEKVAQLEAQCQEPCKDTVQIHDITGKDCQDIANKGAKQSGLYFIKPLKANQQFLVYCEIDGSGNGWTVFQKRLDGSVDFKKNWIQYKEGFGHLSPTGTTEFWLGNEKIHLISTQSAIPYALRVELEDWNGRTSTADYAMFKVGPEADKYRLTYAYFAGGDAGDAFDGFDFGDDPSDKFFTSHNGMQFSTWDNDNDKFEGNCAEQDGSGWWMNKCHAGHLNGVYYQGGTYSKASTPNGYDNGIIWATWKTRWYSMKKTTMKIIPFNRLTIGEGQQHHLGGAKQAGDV", "assay": "fibrinogen binding of expressed peptides (data not shown)", "data": [{"binder": "S. iniae strain QMA136 M protein C-terminal amino acid sequence (309 amino acid peptide expressed from isolate QMA0136) (other, The expression construct is not described; also called QMA136 C-terminal fragment) MAEIQEEANKKIAAVQTELENIDSENQSLSTANEQLKADLEQAARELDTLQSSYYTVENEKAELQKQLAEKDAKIAELEANNTELTATVADLTKALEAAKKEAEEKPALKAKVAELEKALAEAKGLGTKVAELEKDLEKAQAEAKDLETKLAETKAELEKVQAEKAELEATIEKMKKEHAEELDKLNALLADKEKLVEALNKEIEALKKDFDEKSNHSAQEKAKFQEELERLKKELAAKINMPMGNTKGMANAAGNAQTPANNGQNNAVKNQLPSTGDKAGNPFFTASAIAVMVGAGTLAYGRKRKEEE", "values": [{"measurement": "binding result", "result": "no binding"}]}]}
